This note sets out measurements from article PMC11672308.

Data set [1] is described as follows: IF staining, 293T. Particulars: glycan lost; control: GLUT1-WT.
The nature of data set [2]: IF co-staining, Ishikawa cells. The settings on record: glycan changed form; control: shC with GAL9 overexpression.

B1: GLUT1: N45D (protein)
parent chain: MEPSSKKLTGRLMLAVGGAVLGSLQFGYNTGVINAPQKVIEEFYNQTWVHRYGESILPTTLTTLWSLSVAIFSVGGMIGSFSVGLFVNRFGRRNSMLMMNLLAFVSAVLMGFSKLGKSFEMLILGRFIIGVYCGLTTGFVPMYVGEVSPTALRGALGTLHQLGIVVGILIAQVFGLDSIMGNKDLWPLLLSIIFIPALLQCIVLPFCPESPRFLLINRNEENRAKSVLKKLRGTADVTHDLQEMKEESRQMMREKKVTILELFRSPAYRQPILIAVVLQLSQQLSGINAVFYYSTSIFEKAGVQQPVYATIGSGIVNTAFTVVSLFVVERAGRRTLHLIGLAGMAGCAILMTIALALLEQLPWMSYLSIVAIFGFVAFFEVGPGPIPWFIVAELFSQGPRPAAIAVAGFSNWTSNFIVGMCFQYVEQLCGPYVFIIFTVLLVLFFIFTYFKVPETKGRTFDEIASGFRQGGASQSDKTPEELFHPLGADSQV
Turning to B1, the localisation_or_trafficking result in data set [1] was “decreases”.

B2: GLUT1: MGAT4A knockdown (protein)
parent chain: MEPSSKKLTGRLMLAVGGAVLGSLQFGYNTGVINAPQKVIEEFYNQTWVHRYGESILPTTLTTLWSLSVAIFSVGGMIGSFSVGLFVNRFGRRNSMLMMNLLAFVSAVLMGFSKLGKSFEMLILGRFIIGVYCGLTTGFVPMYVGEVSPTALRGALGTLHQLGIVVGILIAQVFGLDSIMGNKDLWPLLLSIIFIPALLQCIVLPFCPESPRFLLINRNEENRAKSVLKKLRGTADVTHDLQEMKEESRQMMREKKVTILELFRSPAYRQPILIAVVLQLSQQLSGINAVFYYSTSIFEKAGVQQPVYATIGSGIVNTAFTVVSLFVVERAGRRTLHLIGLAGMAGCAILMTIALALLEQLPWMSYLSIVAIFGFVAFFEVGPGPIPWFIVAELFSQGPRPAAIAVAGFSNWTSNFIVGMCFQYVEQLCGPYVFIIFTVLLVLFFIFTYFKVPETKGRTFDEIASGFRQGGASQSDKTPEELFHPLGADSQV
For the protein B2, in data set [2], the localisation_or_trafficking entry was “decreases”.
